Data reported in the supplement of paper PMC9170038.

System: MS2 coat protein
Assay: apparent KD of MS2 coat protein; designed switch direction (-1 OFF switch, 1 ON switch): 1; higher = weaker reporter binding
Procedure, shortened: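 RNA switches sharing common flanks were transcribed by stalled E. coli RNA polymerase on Illumina chips. A doubling series of SNAP-549-labelled MS2 coat protein, from 0.7 or 1.5 nM to 3 µM, was applied in Tris-HCl pH 7.5 buffer with KCl, MgCl2, BSA, DTT, tRNA and Tween-20. Each step lasted 0.8–1.5 h at the bottom of the series and 10–20 min at the top. Normalised cluster fluorescence was curve-fitted, giving apparent KD as the per-design median over clusters.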

[1] = input ligand: microRNA oligo, concentration not stated
[2] = Eterna round: R95, input ligand: FMN 200 uM
[3] = Eterna round: R95, input ligand: microRNA oligo, concentration not stated
[4] = Eterna round: R95, input ligand: none

Row | Sequence | apparent KD of MS2 coat protein [1] [µM] | apparent KD of MS2 coat protein [2] [µM] | apparent KD of MS2 coat protein [3] [µM] | apparent KD of MS2 coat protein [4] [µM] | apparent KD of MS2 coat protein (input ligand: FMN 200 uM) [µM] | apparent KD of MS2 coat protein (input ligand: none) [µM]
1 | UGCCUGAGUCGAGGAUAUUAUGGAUCAAUUAAUACAUGAGGAUCACCCAUGUAAUUAAUUUAACAUGAGAAGGUGACUCAGGCU [SSNG2/10-B3] (Eterna round: R96, puzzle: Same State NG 2) | 0.0084 | – | – | – | – | –
2 | GCCGCACAUGAGGAUCACCCAUGUAAUUACAUGGGAGGAUAUCAGUGCUCGAAAGAGCACUGAGAAGGCCUGUGGC [SS1 - Omei A v2] (puzzle: Same State 1) | – | 0.399 | 0.0319 | 0.039 | – | –
3 | GGUGGGUUACUACCAACACAUGAGGAUCACCCAUGUUUUGGGAAGGAUAUGGUACCUAUUUGGUACCAGAAGGUCCAGUUAAUG [salish99_SSNG3_r04_702] (Eterna round: R96, puzzle: Same State NG 3) | 0.0295 | – | – | – | 0.0514 | 0.0417
4 | GCGAAAUGAUGAAACAUGAGGAUCACCCAUGUAACGAGAGAUGAGGAUAUCGGAAAGGGAGGAACCGAGAAGGCAUGGUCACGC [AK SSNG3-V2-26.1] (Eterna round: R96, puzzle: Same State NG 3) | 0.0371 | – | – | – | 0.0345 | 0.0482
5 | AUUAAACAUGAGGAUCACCCAUGUCAACAAAGUCGAGGAUAUGGGCAAAUAAAAUAAGAACCAGAAGGCGAUUAAU [salish99_ss1_r3_078] (puzzle: Same State 1) | – | 0.0187 | 0.109 | 0.0957 | – | –
6 | ACGCUAAAUGGAGGAUAUGGAGCCUUAUUGGCUCCAGAAGGUCAAAACAUGAGGAUCACCCAUGUGCGGUGGUCUAAUGACCAC [Eli NG1ss - 47] (Eterna round: R96, puzzle: Same State NG 1) | 0.0992 | – | – | – | 0.068 | 0.169
7 | UUAGAAUUGCAAGGAUAUCUAAUUUAGAUAGUAAGAGAAGGUGCUUUAUAGUUACAUGAGGAUCACCCAUGUUUUUUUGUUUAU [JR_SSNG1_Sub059] (Eterna round: R96, puzzle: Same State NG 1) | 0.0265 | – | – | – | – | –
8 | AGCUUUUAAUUAGGAUAUGGUCACAUGAGGAUCACCCAUGUAACGAUGAUAUAAUGUGGUCAAGACUAGAAGGGAUUGCUAACA [SameState NG2 #68] (Eterna round: R96, puzzle: Same State NG 2) | 0.357 | – | – | – | 0.589 | 0.355
9 | AUAGUUGCCGAAGGAUAUGAUGAGGAUCACCCAUCAGAAGGUUGGCUAUUGGGCUGACAUGAGGAUCACCCAUGUUUCGGUGUU (Eterna round: R96, puzzle: Same State NG 1) | 0.0171 | – | – | – | 0.0192 | 0.0291
10 | AGAUAGUGUGGAAAGGAUAUACGGUUGAGGACAUGAGGAUCACCCAUGUAGUAGAGGAAGGAAGGGUAGAAGGUUCAGGAUUGAU [JR_SS2_Sub018] (puzzle: Same State 2) | – | 0.0702 | 0.0431 | 0.0504 | – | –
11 | AGUCCAGCCUGAGCUGGACAAAAGCAUGUACAUGAGGAUCACCCAUGUCAUGUACAAGCUUUUUGCUCGACUUAAAA [Mat - hsa-mir-208a - Mod of JL - D10] (puzzle: Sensor for hsa-mir-208a) | – | 0.569 | 0.0142 | 0.624 | – | –
12 | UUUAAACAUGAGGAUCACCCAUGUUUUUUCAUGGGAGGAUAUCUGAGUUAAUUAUAUUAAGGAGAAGGCCUAUUUU [× ×•×ª×• ×ž×“×™× ×” × ×—×ª-01] (puzzle: Same State 1) | – | 0.102 | 0.0386 | 0.0759 | – | –
13 | AGUAUUUAUGCAGGAUAUGAUUAACAUGAGGAUCACCCAUGUGGUGUUGUGAGUAAGGAGAGUGAUCAGAAGGGCAUUUUUUUU [JMF's solution 74] (Eterna round: R96, puzzle: Same State NG 2) | 0.324 | – | – | – | 0.512 | 0.38
14 | AGAACAUGACGAGGAUAUGGAACAUGAGGAUCACCCAUGUAUGUUCCAUAACGCGAAUAAAGAAUCCAGAAGGCGUCGUGAAGA [Mat - Same State NG 2 - JL mod - D32] (Eterna round: R96, puzzle: Same State NG 2) | 0.116 | – | – | – | 0.0345 | 0.147
15 | UUUGGGUGGCUGGAGGAUAUCCUGGUUGUUACAUGAGGAUCACCCAUGUGCCGCGCGGUGCGCUGGGAGAAGGCCGGCGGCCGUU (puzzle: Same State 2) | – | 0.0289 | 0.0611 | 0.141 | – | –
16 | UUUAAACAUGAGGAUCACCCAUGUUUUUUUAUGGGAGGAUAUCUAAGUUAAUUAUAUUAAGGAGAAGGCCUAUUUU (Eterna round: R96, puzzle: Same State 1) | 0.136 | – | – | – | 0.0281 | 0.145
17 | GGAGCCGGUACUGAGGAUAUUCAUAUUAAAACAUGAGGAUCACCCAUGUGGGCCAGAAGGCCUUGGGAGAAGGCAGACCAGCUCG [Atgexeedri - 3] (puzzle: Same State 2) | – | 0.0154 | 0.115 | 0.177 | – | –
18 | CUAAAACAUGAGGAUCACCCAUGUCAACAAAGUCGAGGAUAUGGGCAAAUAAAAUAAGAACCAGAAGGCGAAUAAA [salish99_SS1_r3_015] (puzzle: Same State 1) | – | 0.0428 | 0.518 | 0.518 | – | –
19 | UUUAGCGUUACAGGAUAUGGUGAGGAUCACCCACUAGAAGGGUAAACAUGUGCGUCGGACAUGAGGAUCACCCAUGUAGGGCGU (Eterna round: R96, puzzle: Same State NG 1) | 0.0222 | – | – | – | 0.0165 | 0.0352
20 | GUUAAACAUGAGGAUCACCCAUGUCAAUGUAGUCGAGGAUAUGGGCAGCUGUGAGGCGUACUAGAAGGCGAAAAGG [Mat - Same State 1 - Mod of JL - D10] (puzzle: Same State 1) | – | – | 0.266 | – | – | –
21 | GAGUGGUGGAAAGGAUAUGCAUUGUUAUUCACUGUAGAAGGUUCUAACAUGAGGAUCACCCAUGUAGGACUAUUCCUGUGUUUU [Parity 59 - Jieux - Same State NG 1] (Eterna round: R96, puzzle: Same State NG 1) | 0.0102 | – | – | – | – | –
22 | GCCGCGUUUCGCGCCUACAUGAGGAUCACCCAUGUAUGUCGGCAGGAUAUCGUUUGCUUUGCAAACGAGAAGGGCUGUUGUGGC [salish99_SSNG3_R04_011] (Eterna round: R96, puzzle: Same State NG 3) | 0.00904 | – | – | – | 0.0134 | 0.0144
23 | UAUUUAAUCGUAGGAUAUAGAAUGAAAUUUGUACUAGAAGGACGUUACAUGAGGAUCACCCAUGUGGUAAGUGGGACAUAGAUU [JR_SSNG1_Sub035] (Eterna round: R96, puzzle: Same State NG 1) | 0.105 | – | – | – | 0.235 | 0.121
24 | UUGAAGAAUUAAGGAUAUCGAGUCGUCUAAUUAAACAUGAGGAUCACCCAUGUGGGUUGUGGUAUCGAGAAGGUAAAUUACUAA [JR_SSNG2_Sub099] (Eterna round: R96, puzzle: Same State NG 2) | 0.0653 | – | – | – | 0.0744 | 0.0951
25 | GAGAGACAUGAGGAUCACCCAUGUAGAAUAGAACAAGGAUAUGUGGAAGGCGGAGGAGAGACAGAAGGUGUAGGAA [JR_SS1_Sub054] (puzzle: Same State 1) | – | 0.0625 | 0.0768 | 0.0849 | – | –
26 | AGUGAACAUGAGGAUCACCCAUGUGAGAGAAGUGUAGGAUAUGUGAGGAGCAGAGGAGGAACAGAAGGACAUGGAG [JR_SS!_Sub073] (puzzle: Same State 1) | – | 0.029 | 0.0368 | 0.0485 | – | –
27 | AGGAAACAUGAGGAUCACCCAUGUAAAAAUAUGGGAGGAUAUGCGAAAAGAAACAAAGAAGCAGAAGGCCUAAGAA [75%, Ex5 sub 1, 7] (Eterna round: R96, puzzle: Same State 1) | 0.0857 | – | – | – | – | –
28 | GUGGUCAGACAUGAGGAUCACCCAUGUGGAAUAAAUAAGGAAUAGGAUAUGGAAUAUAGGAUAUACCAGAAGGAUUGGUUGGUG (Eterna round: R96, puzzle: Same State NG 3) | 0.0804 | – | – | – | 0.0969 | 0.097
29 | AUUUGUAAUGCAGGAUAUGAUUAACAUGAGGAUCACCCAUGUGGUGUUGUGAGUAAGGAGAGUGAUCAGAAGGGCAUUUUUUUU [JMF's solution 98] (Eterna round: R96, puzzle: Same State NG 2) | 0.295 | – | – | – | 0.799 | 0.526
